For this assay, the target named is Recombinant His-tagged C-terminal ^ECFTO domain (CD-FTO) (human). Briefly: SEC; ^BTCaM (7.6 µM) and/or CD-FTO (15.2 µM), 10 min at 4 °C, SEC650 column in SEC1 buffer (50 mM MES pH 6.5, 150 mM NaCl, 10% glycerol, 1 mM 2-OG, 0.5 mM MnCl2, 0.5 mM CaCl2).

Turning to “Recombinant His-tagged C-terminal ^ECFTO domain (CD-FTO) (domain or fragment)”, the stoichiometry N stood at 2.

The values above are taken from publication PMC8509707.
